From patent publication US20220259593A1, “CONTROL OF MAMMALIAN GENE DOSAGE USING CRISPR” (The Regents of the University of California, priority 2019, published 2022)
Residue numbers refer to the chain shown, from its start.

B1: cr665 (nucleic acid)
guide: GTTTAAGAGCTAAGCTGGAAACAGCATAGCAACTTTAAATAAGGCTAGTCCGTTATCAACTTGAAAAAGTGCCACCGAGTCGGTGGT
modifications: listed as DNA, chemistry not fully specified
B2: cr475 (nucleic acid)
guide: B1 guide with C33G, A41T, A65T, C72G, G86C
modifications: listed as DNA, chemistry not fully specified
B3: cr445 (nucleic acid)
guide: B1 guide with C33G, C72G, C75T, G77C, C81T, G83C, G86C
modifications: listed as DNA, chemistry not fully specified
B4: cr613 (nucleic acid)
guide: B1 guide with C33G, G43C, C45G, G48C, C51G, C72G, G86C
modifications: listed as DNA, chemistry not fully specified
B5: cr044 (nucleic acid)
guide: B1 guide with T3G, A8T, C33G, C72G, G86C
modifications: listed as DNA, chemistry not fully specified
B6: cr103 (nucleic acid)
guide: B1 guide with A32T, C33G, G52T, C72G, T80G, G86C
modifications: listed as DNA, chemistry not fully specified
B7: cr587 (nucleic acid)
guide: B1 guide with C33G, G44C, C72G, G86C
modifications: listed as DNA, chemistry not fully specified
B8: cr024 (nucleic acid)
guide: B1 guide with G1T, T3G, C33G, C72G, G86C
modifications: listed as DNA, chemistry not fully specified
B9: cr436 (nucleic acid)
guide: B1 guide with C33G, T34G, A59T, T70A, C72G, G86C
modifications: listed as DNA, chemistry not fully specified
B10: cr250 (nucleic acid)
guide: B1 guide with C33G, T49A, G71C, C72G, T80G, G86C
modifications: listed as DNA, chemistry not fully specified
B11: cr949 (nucleic acid)
guide: B1 guide with C33G, T34G, A65T, C72G, G86C
modifications: listed as DNA, chemistry not fully specified
B12: cr052 (nucleic acid)
guide: B1 guide with G1A, T3G, C33G, C72G, G86C
modifications: listed as DNA, chemistry not fully specified
B13: cr295 (nucleic acid)
guide: B1 guide with C33G, T34G, C72G, C73G, G85C, G86C
modifications: listed as DNA, chemistry not fully specified
B14: cr860 (nucleic acid)
guide: B1 guide with C33G, T34C, G43A, C51T, C72G, G86C
modifications: listed as DNA, chemistry not fully specified
B15: cr993 (nucleic acid)
guide: B1 guide with A59T, T70A, C72G, G86C
modifications: listed as DNA, chemistry not fully specified
B16: cr114 (nucleic acid)
guide: B1 guide with C33G, G43T, C45T, G48A, C51A, C72G, A74C, T84G, G86C
modifications: listed as DNA, chemistry not fully specified
B17: cr649 (nucleic acid)
guide: B1 guide with C45T, G48A, C72G, G86C
modifications: listed as DNA, chemistry not fully specified
B18: cr204 (nucleic acid)
guide: B1 guide with C33G, T34C, G44T, C50A, C72G, G86C
modifications: listed as DNA, chemistry not fully specified
B19: cr750 (nucleic acid)
guide: B1 guide with C33G, T34G, C60T, G69A, C72G, G86C
modifications: listed as DNA, chemistry not fully specified
B20: cr067 (nucleic acid)
guide: B1 guide with G1C, T4G, C33G, C72G, G86C
modifications: listed as DNA, chemistry not fully specified
B21: cr862 (nucleic acid)
guide: B1 guide with G29T, A32C, C72G, G86C
modifications: listed as DNA, chemistry not fully specified
B22: cr663 (nucleic acid)
guide: B1 guide with C33G, T34G, C72G, G77T, C81A, G86C
modifications: listed as DNA, chemistry not fully specified
B23: cr268 (nucleic acid)
guide: B1 guide with C33G, T34G, C72G, C76A, G82T, G86C
modifications: listed as DNA, chemistry not fully specified
B24: cr079 (nucleic acid)
guide: B1 guide with T2G, T4C, C33G, C72G, G86C
modifications: listed as DNA, chemistry not fully specified
B25: cr332 (nucleic acid)
guide: B1 guide with C33T, T34A, C72G, G86C
modifications: listed as DNA, chemistry not fully specified
B26: cr137 (nucleic acid)
guide: B1 guide with C33G, A42G, G52T, A64C, C72G, G86C
modifications: listed as DNA, chemistry not fully specified
B27: cr328 (nucleic acid)
guide: B1 guide with C72G, A74C, T84G, G86C
modifications: listed as DNA, chemistry not fully specified
B28: cr528 (nucleic acid)
guide: B1 guide with A31C, A32G, C72G, G86C
modifications: listed as DNA, chemistry not fully specified
B29: cr795 (nucleic acid)
guide: B1 guide with C33G, G43T, C51A, C72T, A74T, T84A, G86A
modifications: listed as DNA, chemistry not fully specified
B30: cr648 (nucleic acid)
guide: B1 guide with G44T, C50A, C72G, G86C
modifications: listed as DNA, chemistry not fully specified
B31: cr509 (nucleic acid)
guide: B1 guide with C33G, G43C, C51G, C72G, C75A, G83T, G86C
modifications: listed as DNA, chemistry not fully specified
B32: cr280 (nucleic acid)
guide: B1 guide with C72T, G86A
modifications: listed as DNA, chemistry not fully specified
B33: cr130 (nucleic acid)
guide: B1 guide with A32T, C33T, C72G, G86C
modifications: listed as DNA, chemistry not fully specified
B34: cr807 (nucleic acid)
guide: B1 guide with C33G, A41T, C72G, A78T, G86C
modifications: listed as DNA, chemistry not fully specified
B35: cr187 (nucleic acid)
guide: B1 guide with C33G, T34G, C72G, G77A, C81T, G86C
modifications: listed as DNA, chemistry not fully specified
B36: cr160 (nucleic acid)
guide: B1 guide with C33T, T34C, C72G, G86C
modifications: listed as DNA, chemistry not fully specified
B37: cr081 (nucleic acid)
guide: B1 guide with G1A, T4A, C33G, C72G, G86C
modifications: listed as DNA, chemistry not fully specified
B38: cr455 (nucleic acid)
guide: B1 guide with C33G, C60T, T62G, A67C, G69A, C72G, G86C
modifications: listed as DNA, chemistry not fully specified
B39: cr054 (nucleic acid)
guide: B1 guide with G7C, A8C, C33G, C72G, G86C
modifications: listed as DNA, chemistry not fully specified
B40: cr704 (nucleic acid)
guide: B1 guide with C33G, T70C, C72G, G86C
modifications: listed as DNA, chemistry not fully specified
B41: cr524 (nucleic acid)
guide: B1 guide with C33G, A64T, C72G, G86C
modifications: listed as DNA, chemistry not fully specified

Each molecule was assayed on K562 CRISPRi cells (assay: Constant region variant library pooled growth screen, K562). Settings: sgRNA constant region variant; activity relative to unmodified constant region cr995; mean CRISPRi activity.
Type: cell-based, human
How it was run: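 K562 CRISPRi, duplicate transductions; puromycin 1 d 0.75 μg/mL then 1 d 0.85 μg/mL; >2000× coverage in spinner flasks; harvests at 4-8 d growth. Activity = phenotype ÷ phenotype with unmodified constant region.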

Row | Molecule | Mean relative activity
1 | B1 | 0.01294
2 | B2 | 0.0113
3 | B3 | 0.01078
4 | B4 | 0.01125
5 | B5 | 0.01046
6 | B6 | 0.01259
7 | B7 | 0.009805
8 | B8 | 0.01205
9 | B9 | 0.008129
10 | B10 | 0.01012
11 | B11 | 0.01022
12 | B12 | 0.009238
13 | B13 | 0.008268
14 | B14 | 0.01022
15 | B15 | 0.00969
16 | B16 | 0.008589
17 | B17 | 0.01138
18 | B18 | 0.01236
19 | B19 | 0.01125

Row | Molecule | Mean relative activity
20 | B20 | 0.01012
21 | B21 | 0.007887
22 | B22 | 0.01081
23 | B23 | 0.01166
24 | B24 | 0.01223
25 | B25 | 0.01145
26 | B26 | 0.008516
27 | B27 | 0.009384
28 | B28 | 0.01243
29 | B29 | 0.009911
30 | B30 | 0.008305
31 | B31 | 0.01061
32 | B32 | 0.01273
33 | B33 | 0.009507
34 | B34 | 0.00776
35 | B35 | 0.00928
36 | B36 | 0.007879
37 | B37 | 0.009207

Same assay, conditions: sgRNA constant region variants; activity relative to the original, un-modified constant region cr995

Row | Molecule | Mean relative activity
38 | B38 | 1.031
39 | B39 | 1.032
40 | B40 | 1.033
41 | B41 | 1.032
